{"source": "paper PMC2831313", "key": {"[1]": {"target": "oxidized HapC(CCS) (treated with diamide or H2O2) (Aspergillus nidulans)", "assay": "SDS-PAGE under non-reducing conditions"}, "[2]": {"target": "N-biotinylated HapB (Aspergillus nidulans)", "assay": "SPR"}, "[3]": {"target": "HapC(SCS) (Aspergillus nidulans)", "assay": "SDS-PAGE without reducing agent"}, "[4]": {"target": "oxidized HapC (treated with diamide or H2O2) (Aspergillus nidulans)", "assay": "SDS-PAGE under non-reducing conditions"}, "[5]": {"target": "HapC with cysteine 74 exchanged to serine (Aspergillus nidulans)", "assay": "SDS-PAGE without reducing agent"}, "[6]": {"target": "HapC(CSS) (Aspergillus nidulans)", "assay": "SDS-PAGE without reducing agent"}, "[7]": {"target": "HapC(SSC) (Aspergillus nidulans)", "assay": "SDS-PAGE without reducing agent"}, "[8]": {"target": "HapC with cysteine 78 exchanged to serine (Aspergillus nidulans)", "assay": "SDS-PAGE without reducing agent"}, "[9]": {"target": "HapC(CCS) (Aspergillus nidulans)", "assay": "SDS-PAGE without reducing agent"}}}
{"substance": "oxidized HapC(CCS) (treated with diamide or H2O2) (natural protein)", "values": [{"measurement": "stoichiometry N", "setting": "[1]", "result": 2}]}
{"substance": "heterodimer of HapC with cysteine 74 exchanged to serine and HapE (complex)", "values": [{"measurement": "HapB binding affinity relative to the HapC/HapE heterodimer", "setting": "[2]", "result": 50, "unit": "%"}]}
{"substance": "HapC(SCS) (natural protein)", "values": [{"measurement": "stoichiometry N", "setting": "[3]", "result": 2}]}
{"substance": "oxidized HapC (treated with diamide or H2O2) (natural protein)", "values": [{"measurement": "stoichiometry N", "setting": "[4]", "result": 2}]}
{"substance": "HapC with cysteine 74 exchanged to serine (natural protein)", "values": [{"measurement": "stoichiometry N", "setting": "[5]", "result": 2}]}
{"substance": "heterodimer composed of the HapC(CCS) mutant and HapE (complex)", "values": [{"measurement": "Kd", "setting": "[2]", "result": 36.8, "unit": "nM"}]}
{"substance": "HapC(CSS) (natural protein)", "values": [{"measurement": "stoichiometry N", "setting": "[6]", "result": 2}]}
{"substance": "HapC(SSC) (natural protein)", "values": [{"measurement": "stoichiometry N", "setting": "[7]", "result": 2}]}
{"substance": "HapC with cysteine 78 exchanged to serine (natural protein)", "values": [{"measurement": "stoichiometry N", "setting": "[8]", "result": 2}]}
{"substance": "HapC(CCS) (natural protein)", "values": [{"measurement": "stoichiometry N", "setting": "[9]", "result": 2}]}
{"substance": "heterodimer of HapC with cysteine 78 exchanged to serine and HapE (complex)", "values": [{"measurement": "HapB binding affinity relative to the HapC/HapE heterodimer", "setting": "[2]", "result": 50, "unit": "%"}]}
